According to patent US20230118307A1, “THERAPEUTIC USE OF LONG-ACTING CONJUGATE OF TRIPLE AGONIST HAVING ACTIVITIES TO ALL OF GLUCAGON/GLP-1/GIP RECEPTORS FOR LUNG DISEASE” (HANMI PHARM. CO., LTD., priority 2020, published 2023):
Positions of bridges follow the written chain, without caps; N, C: chain ends. Non-standard residues stand in square brackets, D forms with d. No end group written: not given here. *: point of attachment. Acetyl(2-(4-imidazolyl)) = O=C(Cc1c[nH]cn1)*; Aib = CC(C)(N)C(=O)O

B1: triple agonist of SEQ ID NO: 87 (peptide)
peptide: [Acetyl(2-(4-imidazolyl))][Aib]QGTFTSDYSIAMDEIHQKDFVNWLLNTC
modifications: bridge 16-20
B2: triple agonist of SEQ ID NO: 88 (peptide)
peptide: [Acetyl(2-(4-imidazolyl))][Aib]QGTFTSDYSKYLDEKRQKEFVQWLLNTKC
modifications: bridge 16-20
B3: triple agonist of SEQ ID NO: 89 (peptide)
peptide: [Acetyl(2-(4-imidazolyl))][Aib]QGTFTSDYSKYLDEKRQKEFVQWLLDTKC
modifications: bridge 16-20
B4: triple agonist of SEQ ID NO: 90 (peptide)
peptide: [Acetyl(2-(4-imidazolyl))][Aib]EGTFTSDYSIAMDEIHQKDFVNWLLAQKC
modifications: bridge 16-20
B5: triple agonist of SEQ ID NO: 91 (peptide)
peptide: [Acetyl(2-(4-imidazolyl))][Aib]EGTFTSDYSIAMDEIHQKDFVDWLLAEKC
modifications: bridge 16-20
B6: triple agonist of SEQ ID NO: 92 (peptide)
peptide: [Acetyl(2-(4-imidazolyl))][Aib]QGTFTSDYSIAMDEIHQKDFVNWLLAQKC
modifications: bridge 16-20
B7: triple agonist of SEQ ID NO: 93 (peptide)
peptide: [Acetyl(2-(4-imidazolyl))][Aib]QGTFTSDYSKYLDEKRQKEFVNWLLAQKC
modifications: bridge 16-20
B8: triple agonist of SEQ ID NO: 94 (peptide)
peptide: [Acetyl(2-(4-imidazolyl))][Aib]QGTFTSDYSIAMDEIHQKDFVNWLLNTKC
modifications: bridge 16-20
B9: triple agonist of SEQ ID NO: 10 (peptide)
peptide: H[Aib]QGTFTSDVSKYLDGQAAQEFVAWLLAGGGPSSGAPPPSC
B10: triple agonist of SEQ ID NO: 95 (peptide)
peptide: Y[Aib]QGTFTSDYSKYLDEKRAKEFVQWLLCHHPSSGQPPPS
modifications: bridge 16-20
B11: triple agonist of SEQ ID NO: 96 (peptide)
peptide: Y[Aib]QGTFTSDYSKYLDEKRAKEFVQWLLDHCPSSGQPPPS
modifications: bridge 16-20
B12: triple agonist of SEQ ID NO: 97 (peptide)
peptide: Y[Aib]QGTFTSDYSKYLDEKRAKEFVQWLLDCHPSSGQPPPS
modifications: bridge 16-20
B13: triple agonist of SEQ ID NO: 98 (peptide)
peptide: Y[Aib]QGTFTSDYSKALDEKAAKEFVNWLLDHHPSSGQPPPSC
modifications: bridge 16-20
B14: triple agonist of SEQ ID NO: 99 (peptide)
peptide: Y[Aib]QGTFTSDYSKALDEKAAKDFVNWLLDHHPSSGQPPPSC
modifications: bridge 16-20

target: human GLP-1 receptor (human, UniProt P43220 24-463); test: cell-based or functional assay

Binder	In vitro Activity Compared to Native Peptide (%) vs. GLP-1
B1	0.9%
B2	9.6%
B3	7.1%
B4	7.4%
B5	31.9%
B6	0.8%
B7	5.7%
B8	0.5%
B9	46%
B10	2.1%
B11	34.4%
B12	10.5%
B13	28.1%
B14	20.9%

target: human GCG receptor (human, UniProt P47871 26-477); test: cell-based or functional assay
Sequence (P47871 26-477): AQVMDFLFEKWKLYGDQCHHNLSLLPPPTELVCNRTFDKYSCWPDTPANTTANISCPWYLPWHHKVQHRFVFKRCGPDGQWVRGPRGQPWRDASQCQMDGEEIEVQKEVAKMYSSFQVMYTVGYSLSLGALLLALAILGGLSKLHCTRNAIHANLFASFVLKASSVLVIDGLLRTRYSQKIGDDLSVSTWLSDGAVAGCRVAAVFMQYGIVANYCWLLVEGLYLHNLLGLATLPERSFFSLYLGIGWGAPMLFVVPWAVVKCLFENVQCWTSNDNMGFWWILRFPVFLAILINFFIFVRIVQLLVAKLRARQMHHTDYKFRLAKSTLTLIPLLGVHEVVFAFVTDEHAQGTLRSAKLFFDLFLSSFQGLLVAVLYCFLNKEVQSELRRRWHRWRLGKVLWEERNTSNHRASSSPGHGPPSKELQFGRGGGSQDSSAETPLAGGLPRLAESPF

Binder	In vitro Activity Compared to Native Peptide (%) vs. Glucagon
B1	< 0.1%
B2	0.3%
B3	0.7%
B4	< 0.1%
B5	16.8%
B6	< 0.1%
B7	0.3%
B8	< 0.1%
B9	< 0.1%
B10	0.4%
B11	195%
B12	62.8%
B13	8.2%
B14	14.9%

target: T1, human GIP receptor (human, UniProt P48546 22-466); test: cell-based or functional assay
T1 sequence (looked up): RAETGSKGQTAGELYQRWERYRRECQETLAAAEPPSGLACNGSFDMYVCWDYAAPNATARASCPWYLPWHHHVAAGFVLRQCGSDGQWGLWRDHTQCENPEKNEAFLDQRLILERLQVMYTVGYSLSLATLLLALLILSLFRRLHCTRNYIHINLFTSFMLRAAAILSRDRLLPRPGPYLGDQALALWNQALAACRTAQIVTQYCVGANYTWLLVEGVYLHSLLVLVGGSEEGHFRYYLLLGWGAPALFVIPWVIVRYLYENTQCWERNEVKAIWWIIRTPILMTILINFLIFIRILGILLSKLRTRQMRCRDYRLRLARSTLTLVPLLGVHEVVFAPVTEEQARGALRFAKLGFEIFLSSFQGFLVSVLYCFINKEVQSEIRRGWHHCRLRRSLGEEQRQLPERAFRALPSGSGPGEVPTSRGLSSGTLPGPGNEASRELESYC

Binder	In vitro Activity Compared to Native Peptide (%) vs. GIP
B1	< 0.1%
B2	< 0.1%
B3	< 0.1%
B4	< 0.1%
B5	0.3%
B6	0.4%
B7	0.7%
B8	< 0.1%
B9	< 0.1%
B10	< 0.1%
B11	5.2%
B12	2.6%
B13	47.1%
B14	57.7%
